Here are results for 28 variants from publication PMC8260793, “A split protease-E. coli ClpXP system quantifies protein–protein interactions in Escherichia coli cells” (Communications Biology, 2021).

To fix the notation:
B1: Cas3 of E. coli K12 Type I-E CRISPR/Cas complex [E. coli K12] / Cas5 of E. coli K12 Type I-E CRISPR/Cas complex [E. coli K12] (parent complex)
chain 1: MEPFKYICHYWGKSSKSLTKGNDIHLLIYHCLDVAAVADCWWDQSVVLQNTFCRNEMLSKQRVKAWLLFFIALHDIGKFDIRFQYKSAESWLKLNPATPSLNGPSTQMCRKFNHGAAGLYWFNQDSLSEQSLGDFFSFFDAAPHPYESWFPWVEAVTGHHGFILHSQDQDKSRWEMPASLASYAAQDKQAREEWISVLEALFLTPAGLSINDIPPDCSSLLAGFCSLADWLGSWTTTNTFLFNEDAPSDINALRTYFQDRQQDASRVLELSGLVSNKRCYEGVHALLDNGYQPRQLQVLVDALPVAPGLTVIEAPTGSGKTETALAYAWKLIDQQIADSVIFALPTQATANAMLTRMEASASHLFSSPNLILAHGNSRFNHLFQSIKSRAITEQGQEEAWVQCCQWLSQSNKKVFLGQIGVCTIDQVLISVLPVKHRFIRGLGIGRSVLIVDEVHAYDTYMNGLLEAVLKAQADVGGSVILLSATLPMKQKQKLLDTYGLHTDPVENNSAYPLINWRGVNGAQRFDLLAHPEQLPPRFSIQPEPICLADMLPDLTMLERMIAAANAGAQVCLICNLVDVAQVCYQRLKELNNTQVDIDLFHARFTLNDRREKENRVISNFGKNGKRNVGRILVATQVVEQSLDVDFDWLITQHCPADLLFQRLGRLHRHHRKYRPAGFEIPVATILLPDGEGYGRHEHIYSNVRVMWRTQQHIEELNGASLFFPDAYRQWLDSIYDDAEMDEPEWVGNGMDKFESAECEKRFKARKVLQWAEEYSLQDNDETILAVTRDGEMSLPLLPYVQTSSGKQLLDGQVYEDLSHEQQYEALALNRVNVPFTWKRSFSEVVDEDGLLWLEGKQNLDGWVWQGNSIVITYTGDEGMTRVIPANPK
chain 2: MRSYLILRLAGPMQAWGQPTFEGTRPTGRFPTRSGLLGLLGACLGIQRDDTSSLQALSESVQFAVRCDELILDDRRVSVTGLRDYHTVLGAREDYRGLKSHETIQTWREYLCDASFTVALWLTPHATMVISELEKAVLKPRYTPYLGRRSCPLTHPLFLGTCQASDPQKALLNYEPVGGDIYSEESVTGHHLKFTARDEPMITLPRQFASREWYVIKGGMDVSQ
B2: Cas3 of E. coli K12 Type I-E CRISPR/Cas complex [E. coli K12] / Cas11 of E. coli K12 Type I-E CRISPR/Cas complex [E. coli K12] (parent complex)
chain 1: B1 chain 1
chain 2: MADEIDAMALYRAWQQLDNGSCAQIRRVSEPDELRDIPAFYRLVQPFGWENPRHQQALLRMVFCLSAGKNVIRHQDKKSEQTTGISLGRALANSGRINERRIFQLIRADRTADMVQLRRLLTHAEPVLDWPLMARMLTWWGKRERQQLLEDFVLTTNKNA
B3: Cas3 of E. coli K12 Type I-E CRISPR/Cas complex [E. coli K12] / Cas6 of E. coli K12 Type I-E CRISPR/Cas complex [E. coli K12] (parent complex)
chain 1: B1 chain 1
chain 2: MYLSKVIIARAWSRDLYQLHQGLWHLFPNRPDAARDFLFHVEKRNTPEGCHVLLQSAQMPVSTAVATVIKTKQVEFQLQVGVPLYFRLRANPIKTILDNQKRLDSKGNIKRCRVPLIKEAEQIAWLQRKLGNAARVEDVHPISERPQYFSGDGKSGKIQTVCFEGVLTINDAPALIDLVQQGIGPAKSMGCGLLSLAPL
B4: Cas3 of E. coli K12 Type I-E CRISPR/Cas complex [E. coli K12] / Cas1 of E. coli K12 Type I-E CRISPR/Cas complex [E. coli K12] (parent complex)
chain 1: B1 chain 1
chain 2: MTWLPLNPIPLKDRVSMIFLQYGQIDVIDGAFVLIDKTGIRTHIPVGSVACIMLEPGTRVSHAAVRLAAQVGTLLVWVGEAGVRVYASGQPGGARSDKLLYQAKLALDEDLRLKVVRKMFELRFGEPAPARRSVEQLRGIEGSRVRATYALLAKQYGVTWNGRRYDPKDWEKGDTINQCISAATSCLYGVTEAAILAAGYAPAIGFVHTGKPLSFVYDIADIIKFDTVVPKAFEIARRNPGEPDREVRLACRDIFRSSKTLAKLIPLIEDVLAAGEIQPPAPPEDAQPVAIPLPVSLGDAGHRSS
B5: Cas3 of E. coli K12 Type I-E CRISPR/Cas complex [E. coli K12] / Cas7 of E. coli K12 Type I-E CRISPR/Cas complex [E. coli K12] (parent complex)
chain 1: B1 chain 1
chain 2: MSNFINIHVLISHSPSCLNRDDMNMQKDAIFGGKRRVRISSQSLKRAMRKSGYYAQNIGESSLRTIHLAQLRDVLRQKLGERFDQKIIDKTLALLSGKSVDEAEKISADAVTPWVVGEIAWFCEQVAKAEADNLDDKKLLKVLKEDIAAIRVNLQQGVDIALSGRMATSGMMTELGKVDGAMSIAHAITTHQVDSDIDWFTAVDDLQEQGSAHLGTQEFSSGVFYRYANINLAQLQENLGGASREQALEIATHVVHMLATEVPGAKQRTYAAFNPADMVMVNFSDMPLSMANAFEKAVKAKDGFLQPSIQAFNQYWDRVANGYGLNGAAAQFSLSDVDPITAQVKQMPTLEQLKSWVRNNGEA
B6: Cas3 of E. coli K12 Type I-E CRISPR/Cas complex [E. coli K12] / Cas8 of E. coli K12 Type I-E CRISPR/Cas complex [E. coli K12] (parent complex)
chain 1: B1 chain 1
chain 2: MNLLIDNWIPVRPRNGGKVQIINLQSLYCSRDQWRLSLPRDDMELAALALLVCIGQIIAPAKDDVEFRHRIMNPLTEDEFQQLIAPWIDMFYLNHAEHPFMQTKGVKANDVTPMEKLLAGVSGATNCAFVNQPGQGEALCGGCTAIALFNQANQAPGFGGGFKSGLRGGTPVTTFVRGIDLRSTVLLNVLTLPRLQKQFPNESHTENQPTWIKPIKSNESIPASSIGFVRGLFWQPAHIELCDPIGIGKCSCCGQESNLRYTGFLKEKFTFTVNGLWPHPHSPCLVTVKKGEVEEKFLAFTTSAPSWTQISRVVVDKIIQNENGNRVAAVVNQFRNIAPQSPLELIMGGYRNNQASILERRHDVLMFNQGWQQYGNVINEIVTVGLGYKTALRKALYTFAEGFKNKDFKGAGVSVHETAERHFYRQSELLIPDVLANVNFSQADEVIADLRDKLHQLCEMLFNQSVAPYAHHPKLISTLALARATLYKHLRELKPQGGPSNG
B7: Cas3 of E. coli K12 Type I-E CRISPR/Cas complex [E. coli K12] / Cas2 of E. coli K12 Type I-E CRISPR/Cas complex [E. coli K12] (parent complex)
chain 1: B1 chain 1
chain 2: MSMLVVVTENVPPRLRGRLAIWLLEVRAGVYVGDVSAKIREMIWEQIAGLAEEGNVVMAWATNTETGFEFQTFGLNRRTPVDLDGLRLVSFLPV

The first assay covers variants of B1. Briefly: SPEC system (split protease-E. coli ClpXP) in E. coli cells; parent: 100; read off a plot.
For chain 1 K78A, the percent of parent is around 67%. Same read-out and setting: the figure for chain 1 H74A is around 45%; for chain 1 D452N it is around 110%.

In another assay the parent is B2. The assay is described as above.
Take chain 1 S483A, chain 1 T485A: the percent of parent is around 73%. As to chain 1 H74A, the percent of parent was around 110%.

With chain 1 K78A, the percent of parent was around 110%.

Variants of B3 are the subject of a further assay. Described as above.
For the variant chain 1 K320N, the percent of parent is around 120%.

For chain 1 D75A, the percent of parent is around 110%. Still for that read-out and setting: the figure for chain 1 S483A, chain 1 T485A is around 130%; for chain 1 D452N it is around 140%. Still for that read-out and setting: the figure for chain 1 K78A is around 95%.

Take chain 1 H74A: the percent of parent was around 150%.

The variants in a further assay derive from B4. The description is as above.
In the case of chain 1 D452N, the percent of parent is around 130%. On the same count and under the same terms, with chain 1 S483A, chain 1 T485A the figure was around 110%. Still for that read-out and setting: the figure for chain 1 K78A is around 50%. Still for that read-out and setting: with chain 1 H74A the figure was around 60%; with chain 1 K320N, around 120%.

The variants in the next assay derive from B5. Described as above.
With chain 1 K320N, the percent of parent is around 120%.

Regarding chain 1 K78A, the percent of parent is around 73%. Take chain 1 D452N: the percent of parent is around 120%.

As to chain 1 S483A, chain 1 T485A, the percent of parent is around 25%.

A further assay covers variants of B6. The assay is described as above.
For chain 1 S483A, chain 1 T485A, the percent of parent was around 97%. For the variant chain 1 K320N, the percent of parent is around 83%. The same measure, in the same setting: with chain 1 H74A the figure was around 82%.

Variants of B7 are the subject of the next assay. The assay is described as above.
For the variant chain 1 K320N, the percent of parent is around 130%. Still for that read-out and setting: with chain 1 K78A the figure was around 110%.

Regarding chain 1 D452N, the percent of parent is around 130%. As to chain 1 H74A, the percent of parent is around 130%.
